Target: StrepHA-SGFP2 (control)
Assay: co-IP; co-IP/HiBiT assay: SGFP2-fused proteins immunoprecipitated with anti-GFP pAb from HEK293 or HEK293 ALG-2KO lysates (with or without co-expressed FLAG-ALG-2); HKM, 1% Nonidet P-40, 10 mM NEM, 10 μM CaCl2; co-precipitated HiBiTHA-SARAF read by lytic HiBiT assay with LgBiT, normalised by …

B1: full-length HiBiTHA-SARAF (WT) (natural protein)
chain: WNDPDRMLLRDVKALTLHYDRYTTSRRLDPIPQLKCVGGTAGCDSYTPKVIQCQNKGWDGYDVQWECKTDLDIAYKFGKTVVSCEGYESSEDQYVLRGSCGLEYNLDYTELGLQKLKESGKQHGFASFSDYYYKWSSADSCNMSGLITIVVLLGIAFVVYKLFLSDGQYSPPPYSEYPPFSHRYQRFTNSAGPPPPGFKSEFTGPQNTGHGATSGFGSAFTGQQGYENSGPGFWTGLGTGGILGYLFGSNRAATPFSDSWYYPSYPPSYPGTWNRAYSPLHGGSGSYSVCSNSDTKTRTASGYGGTRRR
A relative interaction activity (WT expressed as 100%) of under 0.3% was found for B1 in this work.
